Experimental data: patent publication US5556780A, “CDNAS encoding mouse and rat type-2 angiotensin II receptors and their expression in host cells” (The Board of Trustees for the Leland Stanford Junior …, priority 1993, dated 1996)
Blank lines part the entries; values can stand above or below the molecule they belong to.

What was measured:
[1] = molecular target: T1, rat AT2 receptor (Rattus norvegicus, UniProt P35351); test: Radioligand binding / displacement of 125I-CGP42112A on membranes of pMRAT2-transfected COS-7 cells; settings: for order of inhibition potency (competition profiles): displacement of 125I-CGP42112A
T1 construct: pMRAT2, a rat AT2 receptor full-length cDNA cloned into the expression vector pcDNA I; expressed in transfected cells; host or cells: COS-7 (transient)
T1 sequence (P35351 1-363): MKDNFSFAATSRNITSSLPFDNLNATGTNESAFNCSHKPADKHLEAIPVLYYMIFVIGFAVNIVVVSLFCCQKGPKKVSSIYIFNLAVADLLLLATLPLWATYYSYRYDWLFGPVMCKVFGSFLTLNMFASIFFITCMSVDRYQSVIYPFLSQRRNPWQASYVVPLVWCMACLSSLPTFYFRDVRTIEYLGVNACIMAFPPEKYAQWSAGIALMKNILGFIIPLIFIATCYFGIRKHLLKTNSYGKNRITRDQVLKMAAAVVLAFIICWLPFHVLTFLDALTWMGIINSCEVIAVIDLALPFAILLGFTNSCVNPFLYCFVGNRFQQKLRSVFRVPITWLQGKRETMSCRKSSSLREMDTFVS
Method: cDNA prepared from size-fractionated (>1 kb) poly(A)^+ RNA (Sprague-Dawley whole rat fetus, 18 days postcoitum) was ligated into an expression vector pcDNAI (Invitrogen), and amplified in 900 pools of 1,000 clones. […] Sequencing of both strands of clone pMRAT2 was done by the dideoxy chain termination method with Sequenase (USB).
2 h after incubation at room temperature, bound and free ligands were separated with GF/C filters (Whatman). […] Each experiment was carried out at least twice in duplicate, and the results shown here represent one experiment.

[2] = test system: mouse AT1b receptor; test: Emulsion autoradiography of 125I-[Sar1,Ile8]-Ang II binding to transfected COS-7 cells (positive control); settings: 1 uM DuP753; 200 pM radioligand, 2 h, room temperature
Method: cDNA prepared from size-fractionated (>1 kb) poly(A)^+ RNA (Sprague-Dawley whole rat fetus, 18 days postcoitum) was ligated into an expression vector pcDNAI (Invitrogen), and amplified in 900 pools of 1,000 clones. Plasmid DNA prepared from every 8 pools by the alkali lysis method was transfected over 2-3 h using DEAE-dextran/chloroquine into COS-7 cells grown on glass chamber slides (Nunc) (Mathews, L. S. & Vale, W. W. Cell 65, 973-982 (1991)). […] Cells were then washed four times with cold 50 mM Tris-HCl, pH 7.4, fixed with 0.1% glutaraldehyde at 4 C and subjected to emulsion autoradiography (Mathews, L. S. & Vale, W. W. Cell 65, 973-982 (1991)). […] Positive pool (RF904) which gave 20 DuP753-resistant positive cells was divided into subpools and rescreened, and after three rounds of screening a single clone pMRAT2 was isolated. Sequencing of both strands of clone pMRAT2 was done by the dideoxy chain termination method with Sequenase (USB).

[3] = molecular target: T2, mouse AT2 receptor (Mus musculus, UniProt P35374); test: [125I]CGP42112A binding / displacement on membranes of COS-7 cells transfected with mouse AT2 receptor cDNA (MC5); settings: 0.2 nM [125I]CGP42112A
T2 construct: expressed in transfected cells; host or cells: COS-7
T2 sequence (P35374 1-363): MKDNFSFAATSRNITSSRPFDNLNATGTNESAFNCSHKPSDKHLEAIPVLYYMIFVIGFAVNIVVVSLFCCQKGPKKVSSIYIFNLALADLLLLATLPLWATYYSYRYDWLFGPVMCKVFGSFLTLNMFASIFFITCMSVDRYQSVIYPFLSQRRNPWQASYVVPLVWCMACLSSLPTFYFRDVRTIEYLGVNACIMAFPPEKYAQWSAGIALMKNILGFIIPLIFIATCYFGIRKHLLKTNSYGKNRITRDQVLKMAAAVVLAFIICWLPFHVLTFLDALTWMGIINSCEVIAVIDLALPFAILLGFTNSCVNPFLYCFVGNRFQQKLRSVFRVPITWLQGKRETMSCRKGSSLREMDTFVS
Source text: Materials. […] Louis, Mo.). […] Expression in COS-7 Cells and Ligand Binding Assay. […] The transfected cells were harvested and homogenized. The 100,000×g pellet of this homogenate was suspended and used as a membrane fraction.

[4] = test system: cloned AT2 receptor; test: Intracellular calcium (fura-2) in AT2-transfected COS-7 cells; assay type: cell-based, rat; settings: 1 uM Ang II
Method: (§1) Intracellular IP3 levels were measured using radioreceptor assay (NEN). […] Cell fluorescence was measured with excitation at 340 nm and 380 nm. Ionomycin (10 uM) and EGTA (10 mM) were used for calibration.

[5] = test system: cloned AT2 receptor; test: Intracellular IP3 levels in AT2-transfected COS-7 cells (radioreceptor assay); assay type: cell-based, rat; settings: 1 uM Ang II, 15 sec, 37 C
Method: as §1

[6] = molecular target: rat AT2 receptor (angiotensin II type 2 receptor), clone pMRAT2 (rat); test: radioligand binding with DTT, membranes of COS-7 cells transfected with pMRAT2
[7] = molecular target: rat AT2 receptor (angiotensin II type 2 receptor), clone pMRAT2 (rat); test: radioligand saturation binding, crude membranes of S293RAT2 cells (293 cells stably transfected with pMRAT2)
[8] = molecular target: mouse AT2 receptor (angiotensin II type 2 receptor), clone MC5 (mouse); test: radioligand saturation binding with Scatchard plot, membrane fraction of COS-7 cells transfected with mouse AT2 receptor cDNA
[9] = molecular target: rat AT2 receptor (angiotensin II type 2 receptor), clone pMRAT2 (rat); test: radioligand saturation binding, crude membranes of COS-7 cells transiently transfected with pMRAT2
[10] = molecular target: T3, rat AT2 receptor (angiotensin II type 2 receptor), clone pMRAT2 (rat); test: expression cloning: emulsion autoradiography of transfected COS-7 cells, 200 pM radioligand with or without DuP753
T3 chain: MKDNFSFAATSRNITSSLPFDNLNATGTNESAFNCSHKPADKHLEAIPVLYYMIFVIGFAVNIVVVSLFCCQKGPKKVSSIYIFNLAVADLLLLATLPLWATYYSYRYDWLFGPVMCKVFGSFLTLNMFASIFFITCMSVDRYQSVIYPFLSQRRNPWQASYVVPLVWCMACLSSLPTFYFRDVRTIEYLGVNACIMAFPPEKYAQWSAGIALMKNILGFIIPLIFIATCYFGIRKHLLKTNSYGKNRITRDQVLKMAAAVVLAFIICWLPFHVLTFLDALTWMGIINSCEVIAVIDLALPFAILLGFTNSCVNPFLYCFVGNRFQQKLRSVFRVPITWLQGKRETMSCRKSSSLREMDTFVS
Method: cDNA prepared from size-fractionated (>1 kb) poly(A)^+ RNA (Sprague-Dawley whole rat fetus, 18 days postcoitum) was ligated into an expression vector pcDNAI (Invitrogen), and amplified in 900 pools of 1,000 clones. Plasmid DNA prepared from every 8 pools by the alkali lysis method was transfected over 2–3 h using DEAE-dextran/chloroquine into COS-7 cells grown on glass chamber slides (Nunc) (Mathews, L. S. & Vale, W. W. Cell 65, 973–982 (1991)). […] Cells were then washed four times with cold 50 mM Tris-HCl, pH 7.4, fixed with 0.1% glutaraldehyde at 4 C and subjected to emulsion autoradiography (Mathews, L. S. & Vale, W. W. Cell 65, 973–982 (1991)). […] Sequencing of both strands of clone pMRAT2 was done by the dideoxy chain termination method with Sequenase (USB).

[11] = molecular target: mouse AT1b receptor (mouse, UniProt P29755); test: emulsion autoradiography of COS-7 cells transfected with the mouse AT1b receptor clone, 200 pM radioligand

- increase of binding affinity by DTT ([1]; with DTT): 50-100%
Molecule: CGP42112A
- order of inhibition potency (competition profiles) ([1]; 150 pM radioligand): [Sar^1,Ile^8 ]-Ang II=CGP42112A≥Ang II>PD123319^10,15 >Ang I
- rank order of competition of [125I]CGP42112A binding [3]: [Sar^1,Ile^8 ]-Ang II=CGP42112A≥Ang II>PD123319>Ang I

- increase of binding affinity by DTT [6]: 50 to 100%
Molecule: CGP42112A (unlabelled) (ligand)

- Kd [7]: 0.18 nM
- Kd [8]: 0.12 nM
- Kd [9]: 0.17 nM
Molecule: [^125 I]CGP42112A (ligand)

- binding result [10]: binds
- binding result [11]: binds
B1: ^125 I-[Sar^1,Ile^8]-Ang II (peptide)
peptide: GRVYIHPI
modifications: Sar at position 1, Ile at position 8, 125I label, as printed ^125 I-[Sar^1,Ile^8]-Ang II

The next lines start with the molecule.

Molecule: CCCCc1nc(Cl)c(CO)n1Cc1ccc(-c2ccccc2-c2nn[nH]n2)cc1 [DuP753]
- effect in competition (displacement of 125I-CGP42112A) ([1]; 150 pM radioligand): no effect
- effect on positive staining (125I-[Sar1,Ile8]-Ang II binding) [2]: completely abolished
- competition of [125I]CGP42112A binding ([3]; at a concentration up to 10^-5 M): virtually inactive

Molecule: Cc1cc(Cn2cnc3c2C[C@@H](C(=O)O)N(C(=O)C(c2ccccc2)c2ccccc2)C3)ccc1N(C)C [PD123319]
- order of inhibition potency (competition profiles) ([1]; 150 pM radioligand): [Sar^1,Ile^8 ]-Ang II=CGP42112A≥Ang II>PD123319^10,15 >Ang I
- rank order of competition of [125I]CGP42112A binding [3]: [Sar^1,Ile^8 ]-Ang II=CGP42112A≥Ang II>PD123319>Ang I

Molecule: Ang I: Ang I, purchased from Sigma (DRVYIHPFHL)
- order of inhibition potency (competition profiles) ([1]; 150 pM radioligand): [Sar^1,Ile^8 ]-Ang II=CGP42112A≥Ang II>PD123319^10,15 >Ang I
- rank order of competition of [125I]CGP42112A binding [3]: [Sar^1,Ile^8 ]-Ang II=CGP42112A≥Ang II>PD123319>Ang I

Molecule: Ang II: Angiotensin II is an octapeptide hormone
- increase of intracellular calcium [4]: failed to increase
- increase of IP3 [5]: failed to increase

Molecule: Ang II: Angiotensin II is an octapeptide hormone (DRVYIHPF)
- rank order of competition of [125I]CGP42112A binding [3]: [Sar^1,Ile^8 ]-Ang II=CGP42112A≥Ang II>PD123319>Ang I

Molecule: [Sar^1,Ile^8 ]-Ang II: a non-selective Ang II receptor antagonist
- order of inhibition potency (competition profiles) ([1]; 150 pM radioligand): [Sar^1,Ile^8 ]-Ang II=CGP42112A≥Ang II>PD123319^10,15 >Ang I
- rank order of competition of [125I]CGP42112A binding [3]: [Sar^1,Ile^8 ]-Ang II=CGP42112A≥Ang II>PD123319>Ang I
